Experiment [1] has as its target Nur77 (UniProt P22736). As to the kind of experiment: co-IP of transfected tagged proteins. Particulars: reference: wild-type Flag-Bcl-2.
Experiment [2] addresses Nur77 (UniProt P22736). The experiment can be described thus: co-IP anti-Flag (Nur77), anti-Myc (Bcl-2) blot. Conditions: reference: wild-type Myc-Bcl-2; sites S87.

“Bcl-2 (from UniProt P10415) Flag-Bcl-2/S87A”: the “binding against the reference” value in experiment [1] (sites S87) is “weaker”. Take “Bcl-2 (from UniProt P10415) Myc-Bcl-2/S87A”: the “binding against the reference” value in experiment [2] was “lost”. Regarding “Bcl-2 (from UniProt P10415) Flag-Bcl-2/T56A”, the “binding against the reference” value in experiment [1] (sites T56) is given as “weaker”.

The values are drawn from PMC5642512.
